Measured values as given in patent publication US20220288202A1, “Use of Calcineurin Inhibitor Free CTLA4-IG + Anti-IL6/IL6R For Long Term Immunosuppression in Solid Organ Transplant Recipients” (Cedars-Sinai Medical Center, priority 2019, published 2022).
Values joined by “and” are separate entries in the source; they are usually repeats but may differ in a detail not shown here. Identical values can stand only once. “Also recorded” adds a separate entry of the source.

Key:
[1] = system: highly HLA sensitized kidney transplant recipients; assay: Experience with anti-IL-6/IL-6R+CTLA4-Ig, CNI-free and MMF-free, in human kidney transplant recipients (case courses); assay type: in vivo
Excerpt: Four patients were maintained on CNI-free and MMF-free immunosuppression on anti-IL-6R or anti-IL-6+CTLA4-Ig for a prolonged time period (years) after transplant. These patients received two infusions per month as their standard immunosuppression.

[2] = system: donor specific antibodies; assay: clazakizumab desensitization trial: donor specific antibodies pre- and post-transplant; assay type: in vivo, human
Description: (§1) Patients entered into the afore-described clazakizumab desensitization trial (NCT03380962) where 75% were in the 99-100% Panel Reactive Antibody (PRA) range received clazakizumab 25 mg subcutaneously monthly for up to 6 months. If transplanted, they received continued clazakizumab for up to 6 M post-transplant. This group of patients are exceedingly difficult to transplant due to high likelihood of severe antibody mediated rejection and graft loss post-transplant. Antibody levels, pre-post-transplant and Treg cells were monitored at concomitant time points.
Transplant patients who were treated as described in the previous example were also monitored to assess the effect of clazakizumab on donor specific antibodies. Particularly, levels of donor specific antibodies were monitored in transplant patient samples pre- and post-transplant.

[3] = system: highly HLA sensitized patients (HLAi kidney transplant); assay: clazakizumab desensitization trial: transplantation, rejection episodes and graft loss; assay type: in vivo, human; settings: for highly sensitized patients able to receive transplants: after clazakizumab desensitization
Description: as §1
(§2) As part of a phase I/II trial of clazakizumab for desensitization, HLA sensitized patients received anti-IL-6, 25 mg SC monthly×6 doses with monitoring of HLA antibody levels and Tregs. Patients were treated pre- and post-transplant with clazakizumab. Transplanted patients received monthly clazakizumab 25 mg subcutaneously starting 5-7 days post-transplant for 12 months. Tregs were determined by flow cytometry as CD4^+, CD25^+, CD127^dim, FoxP3^+ cell populations in CD4^+ cells. Determinations were made at baseline, at transplantation and day 180 post-transplant.

[4] = system: monkeys; settings: monkey, in vivo; cited from earlier work
[5] = in vivo; cited from earlier work
[6] = system: Treg cells (CD4+, CD25+, CD127dim, FoxP3+); assay: Tregs by flow cytometry in clazakizumab-treated HLA sensitized patients; assay type: in vivo, human; settings: for Mean Treg value: baseline 3.2+1.09%, in CD4+ cells
Description: as §2

[7] = system: HLA antibodies (class I and class II); assay: clazakizumab desensitization trial (NCT03380962): HLA antibody levels pre- and post-clazakizumab; assay type: in vivo, human
Description: as §1, §2

[8] = system: patients/subjects taking clazakizumab; settings: human, in vivo, cited from earlier work
[9] = post-transplant on clazakizumab

For C=CC[C@@H]1/C=C(\C)C[C@H](C)C[C@H](OC)[C@H]2O[C@@](O)(C(=O)C(=O)N3CCCC[C@H]3C(=O)O[C@H](/C(C)=C/[C@@H]3CC[C@@H](O)[C@H](OC)C3)[C@H](C)[C@@H](O)CC1=O)[C@H](C)C[C@@H]2OC [tacrolimus], the biopsy toxicity finding ([1]; patient, three years after anti-IL-6R start, tapered off) was “toxicity seen on a biopsy”.

With tocilizumab the “duration of stable course with declining SCr” value ([1]; person on CTLA4-Ig + tocilizumab monthly) was “over 1.5 years” and the SCr course ([1]; person, chronic ABMR, on CTLA4-Ig, converted from CELLCEPT to tocilizumab monthly) was “stable with declining SCr”.

B1: clazakizumab (antibody, chains of the INN, looked up, V domains shown)
VH: EVQLVESGGGLVQPGGSLRLSCAASGFSLSNYYVTWVRQAPGKGLEWVGIIYGSDETAYATSAIGRFTISRDNSKNTLYLQMNSLRAEDTAVYYCARDDSSDWDAKFNLWGQGTLVTVSS
VL: AIQMTQSPSSLSASVGDRVTITCQASQSINNELSWYQQKPGKAPKLLIYRASTLASGVPSRFSGSGSGTDFTLTISSLQPDDFATYYCQQGYSLRNIDNAFGGGTKVEIK
notes: Genetically engineered humanized anti-IL-6 mAb
For B1, the “donor-specific antibodies present prior to transplant” value ([2]; at transplant) was “significantly reduced”, the “DSA status of DSA+ patients” value ([2]; by day 180 post-transplant) was “negative” and the “donor-specific antibodies present prior to transplant” value ([2]; post-transplant) was “disappeared”. The pathogenic antibodies ([2]; up to 3 months post-transplant) was “significant reduction”, the “highly sensitized patients able to receive transplants” value [3] was “all of these patients and 9/10” and the “highly sensitized patients able to receive transplants” value ([3]; listed as claza) was 10 patients. The “grafts lost due to rejection” value [3, 9] was “no grafts were lost; also recorded: no graft loss”, the “transplant patients with rejection episodes” value [3, 9] was “Two of the ten and 2 of 10” and the “monkeys with retained placentas in which excessive uterine hemorrhage led to moribund status” value [4] was 3 of the 5. The “elimination half-life (t1/2)” value [5] was “about 30 days”, the “Mean Treg value” ([6]; at transplant, p=NS) was 3.5+1.75% and the “change in Treg cells” value ([6]; day 180 post-transplant, still on anti-IL-6 therapy) was “significant increase; also recorded: dramatic increase”. The “Mean Treg value” ([6]; day 180 post-transplant, p=0.008) was 12.6+9.3%, the “Mean MFI for HLA cl” value ([7]; post claza, pre-desensitization 13062±3123, p=0.05, nine transplanted patients) was 8585±4597 MFI and the “Mean MFI for HLA cll” value ([7]; post claza, pre-desensitization 13519±2966, p=0.03, nine transplanted patients) was 8344±4836 MFI. The “impact on HLA antibodies (class I and class II)” value ([7]; pre- vs post-clazakizumab 25 mg SC monthly) was “significant reductions; also recorded: reduced”, the infusion reactions ([8]; iv) was “no infusion reactions” and the “severity of injection site reactions” value ([8]; sc) was “mild or moderate”. For the same molecule, the demyelinating disorder events [8] was “rarely reported”, the malignancies [8] was “no imbalance of malignancies” and the “outcome of pregnancies in subjects taking clazakizumab” value [8] was “one spontaneous abortion”. The “reactivation of viral and other serious infections (e.g. EBV or TB)” value [8] was “rarely reported”.
